Measurements reported in the supplement of paper PMC6757056.
± gives the standard deviation of the averaged measurements.

B1: library; a variant is named by its letters at N, in order (parent)
chain: GCUGUCACCGGUGUAUUACCCUAGUGGUCGACCGGUCUGAUGAGUCUNNNNNNAGACGAAACAGC

Key:
hypoxanthine [1] = variants of: B1; test: normalized RNA/DNA level with ligand (relative to sTRSVctl = 100) (log10 (% of sTRSVctl)); ligand: hypoxanthine (xanthine aptamer); higher = less ribozyme self-cleavage, higher mRNA level; settings: ligand concentration (+) RNA-Seq: 5 mM, HEK293T, reporter: mCherry (pCS4076), ligand present: yes
How it was run: (§1)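 RNA level was computed as RNA reads over DNA reads divided by a spiked-in non-cleaving sequence or by the top sequences, then scaled and log-transformed. Scaling was ×100 with log10, the top group was 25 sequences, and the threshold was ≥100 DNA reads. The reads came from HEK293T cells transfected at 4 µg per 6-well well with ribozyme switch library plasmids (mCherry, or eGFP in some ligand experiments). Total RNA was extracted with EDTA 72 h after transfection, with any ligand added 1 h before it.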

hypoxanthine [2] = variants of: B1; test: normalized RNA/DNA level without ligand (relative to sTRSVctl = 100) (log10 (% of sTRSVctl)); ligand: hypoxanthine (xanthine aptamer); higher = less ribozyme self-cleavage, higher mRNA level; settings: HEK293T, reporter: mCherry (pCS4076), ligand present: no
How it was run: as §1

Variant | normalized RNA/DNA level with ligand (log10) (hypoxanthine [1]) | normalized RNA/DNA level without ligand (log10) (hypoxanthine [2])
UGGUUA | 1.94 ± 0.044 | 1.871 ± 0.0021
UGGGGU | 1.915 ± 0.017 | 1.64 ± 0.034
UGGGGC | 1.99 ± 0.025 | 1.94 ± 0.0063
UGGGGG | 1.883 ± 0.0071 | 1.57 ± 0.054
AGUCAA | 1.89 ± 0.051 | 1.8 ± 0.035
AGUCAC | 1.94 ± 0.06 | 1.883 ± 0.014
AGUCAG | 1.86 ± 0.13 | 1.64 ± 0.041
CGGGGG | 1.86 ± 0.032 | 1.25 ± 0.059
CGGGGU | 1.99 ± 0.0036 | 1.908 ± 0.0053
CGGGGA | 1.97 ± 0.097 | 1.76 ± 0.035
UGGGUU | 1.99 ± 0.023 | 1.9 ± 0.047
UGGGUC | 1.98 ± 0.043 | 1.966 ± 0.0086
UGGGUG | 1.972 ± 0.0063 | 1.727 ± 0.016
CGUACG | 1.92 ± 0.056 | 1.87 ± 0.028
CGUACU | 1.954 ± 0.018 | 1.8632 ± 0.0012
AGGCUU | 1.968 ± 0.014 | 1.89 ± 0.043
UGUUCG | 1.94 ± 0.074 | 1.8368 ± 0.00097
UGUUCU | 1.93 ± 0.058 | 1.97 ± 0.051
UGUUCC | 2.03 ± 0.011 | 1.93 ± 0.022
UGUUCA | 1.96 ± 0.093 | 1.87 ± 0.029
AGUUCU | 1.8964 ± 0.00099 | 1.86 ± 0.056
AGUUCC | 1.922 ± 0.0092 | 1.886 ± 0.0063
AGUUCG | 1.857 ± 0.017 | 1.43 ± 0.021
CGGUAC | 1.88 ± 0.03 | 1.54 ± 0.084

Variant | normalized RNA/DNA level with ligand (log10) (hypoxanthine [1]) | normalized RNA/DNA level without ligand (log10) (hypoxanthine [2])
CGUCAC | 1.96 ± 0.044 | 1.92 ± 0.024
CGUCAU | 1.931 ± 0.0026 | 1.92 ± 0.029
AGGGAU | 1.89 ± 0.051 | 1.713 ± 0.0045
CGUGAG | 1.85 ± 0.082 | 1.75 ± 0.011
CGUGAU | 1.9 ± 0.032 | 1.73 ± 0.024
CGUGAC | 1.916 ± 0.0084 | 1.79 ± 0.04
UGGUAC | 1.98 ± 0.088 | 1.85 ± 0.041
UGGUAG | 1.88 ± 0.028 | 1.55 ± 0.011
UGGUAU | 1.907 ± 0.0077 | 1.707 ± 0.017
UGGUAA | 1.902 ± 0.013 | 1.712 ± 0.011
UGGUCU | 1.91 ± 0.028 | 1.91 ± 0.025
UGGUCC | 1.98 ± 0.035 | 1.93 ± 0.039
GGUCCU | 1.941 ± 0.017 | 1.96 ± 0.061
GGUCCC | 1.92 ± 0.05 | 1.902 ± 0.0045
GGUCCG | 2.01 ± 0.061 | 1.829 ± 0.018
CGUUGA | 1.96 ± 0.024 | 1.834 ± 0.014
CGUCUG | 1.95 ± 0.11 | 1.957 ± 0.013
CGUCUU | 2.01 ± 0.035 | 1.958 ± 0.018
CGUCUA | 1.93 ± 0.025 | 1.87 ± 0.029
CGUCUC | 2 ± 0.023 | 2.03 ± 0.017
CGGGCA | 1.98 ± 0.049 | 1.8985 ± 0.0018
CGGGCG | 1.973 ± 0.012 | 1.76 ± 0.024
CGGGCC | 1.944 ± 0.0098 | 1.99 ± 0.026
AGUACA | 1.87 ± 0.071 | 1.76 ± 0.036

Variant | normalized RNA/DNA level with ligand (log10) (hypoxanthine [1]) | normalized RNA/DNA level without ligand (log10) (hypoxanthine [2])
AGUACU | 1.897 ± 0.0094 | 1.89 ± 0.043
AGUACC | 1.94 ± 0.069 | 1.87 ± 0.03
UGGGCG | 1.96 ± 0.043 | 1.8 ± 0.042
UGGGCA | 1.938 ± 0.014 | 1.84 ± 0.056
UGGGCC | 1.96 ± 0.04 | 2.019 ± 0.012
UGGGCU | 2.05 ± 0.031 | 1.974 ± 0.019
CGGUUG | 1.97 ± 0.072 | 1.88 ± 0.062
CGGUUU | 1.935 ± 0.017 | 1.791 ± 0.015
CGGUUA | 1.89 ± 0.11 | 1.52 ± 0.045
CGUGGU | 1.95 ± 0.021 | 1.86 ± 0.026
CGUGGC | 1.901 ± 0.0033 | 1.883 ± 0.013
AGGGUG | 1.886 ± 0.012 | 1.54 ± 0.09
AGUAGG | 1.78 ± 0.051 | 1.368 ± 0.013
AGUAGC | 1.911 ± 0.012 | 1.64 ± 0.08
GGUCUU | 1.933 ± 0.018 | 1.94 ± 0.025
GGUCUC | 2.006 ± 0.016 | 1.96 ± 0.037
GGUCUG | 1.87 ± 0.06 | 1.71 ± 0.029
CGGGUG | 1.893 ± 0.013 | 1.7 ± 0.05
CGGGUC | 2.01 ± 0.05 | 1.946 ± 0.017
UGUCUC | 1.999 ± 0.0092 | 2.013 ± 0.019
UGUCUG | 1.93 ± 0.037 | 1.77 ± 0.03
UGUCUU | 2.01 ± 0.033 | 1.907 ± 0.0099
AGUCCA | 1.95 ± 0.05 | 1.868 ± 0.015
AGUCCG | 1.9 ± 0.09 | 1.528 ± 0.0051

Variant | normalized RNA/DNA level with ligand (log10) (hypoxanthine [1]) | normalized RNA/DNA level without ligand (log10) (hypoxanthine [2])
AGUCCC | 1.94 ± 0.026 | 1.931 ± 0.012
CGUAAU | 1.86 ± 0.022 | 1.675 ± 0.013
CGUAAG | 1.95 ± 0.049 | 1.76 ± 0.022
CGUAAC | 1.95 ± 0.047 | 1.77 ± 0.038
CGUUAC | 1.91 ± 0.082 | 1.717 ± 0.0087
CGUUAG | 1.944 ± 0.01 | 1.77 ± 0.17
CGUUAU | 1.916 ± 0.006 | 1.753 ± 0.011
CGGGAA | 1.85 ± 0.029 | 1.53 ± 0.046
CGGGAU | 1.94 ± 0.064 | 1.608 ± 0.016
CGGGAG | 1.87 ± 0.04 | 1.63 ± 0.021
CGGGAC | 1.96 ± 0.078 | 1.726 ± 0.0062
GGGGUG | 1.95 ± 0.027 | 1.562 ± 0.0074
GGGGUC | 1.94 ± 0.025 | 1.84 ± 0.03
GGGGUU | 1.98 ± 0.037 | 1.96 ± 0.034
AGGGGA | 1.908 ± 0.015 | 1.61 ± 0.053
AGGGGU | 1.855 ± 0.0023 | 1.61 ± 0.032
GGGUUU | 1.951 ± 0.015 | 1.951 ± 0.0082
GGGUUC | 1.95 ± 0.053 | 1.91 ± 0.095
UGUGAG | 1.894 ± 0.015 | 1.588 ± 0.011
UGUGAA | 1.908 ± 0.012 | 1.76 ± 0.025
UGUGAU | 1.9 ± 0.026 | 1.77 ± 0.023
CGUGCC | 1.97 ± 0.039 | 1.922 ± 0.0033
CGUGCG | 1.95 ± 0.071 | 1.9 ± 0.027
AGUCUC | 1.94 ± 0.037 | 1.89 ± 0.026

Variant | normalized RNA/DNA level with ligand (log10) (hypoxanthine [1]) | normalized RNA/DNA level without ligand (log10) (hypoxanthine [2])
AGUCUA | 1.924 ± 0.0097 | 1.836 ± 0.0084
AGUCUU | 1.96 ± 0.04 | 1.89 ± 0.036
GGUGUC | 1.916 ± 0.0061 | 1.846 ± 0.018
GGUGUU | 1.97 ± 0.051 | 1.88 ± 0.03
UGUCAU | 1.939 ± 0.01 | 1.823 ± 0.0053
UGUCAA | 1.9 ± 0.035 | 1.79 ± 0.019
UGUCAC | 1.9615 ± 0.00089 | 1.885 ± 0.012
UGUCAG | 1.89 ± 0.03 | 1.74 ± 0.07
CGUGUA | 1.93 ± 0.024 | 1.68 ± 0.042
CGUGUU | 1.97 ± 0.054 | 1.89 ± 0.071
CGUGUG | 1.903 ± 0.015 | 1.75 ± 0.08
CGUGUC | 1.947 ± 0.015 | 1.94 ± 0.039
UGUACC | 2 ± 0.033 | 1.92 ± 0.023
UGUACG | 1.929 ± 0.01 | 1.83 ± 0.044
CGUCGA | 1.914 ± 0.011 | 1.85 ± 0.052
CGUCGC | 1.9 ± 0.11 | 1.909 ± 0.01
CGUCGU | 2.05 ± 0.051 | 1.98 ± 0.036
CGUCGG | 1.9 ± 0.026 | 1.57 ± 0.035
GGUGGG | 1.9 ± 0.028 | 1.47 ± 0.056
GGUGGU | 1.96 ± 0.084 | 1.86 ± 0.061
